# Experimental data from patent publication US20040052799A1, “Nucleic acid and amino acid sequences relating to Helicobacter pylori for diagnostics and therapeutics” (Astra Aktiebolag, priority 1996, published 2004).
# T1: H. pylori glutamate racemase (murI gene product) (Helicobacter pylori, UniProt Q9ZLT0)
# T1 construct: made in house; host or cells: E. coli BL21(DE3) carrying pET-23-murI and pACYC-groE (GroES/GroEL co-expressed)
# T1 sequence (Q9ZLT0 1-255): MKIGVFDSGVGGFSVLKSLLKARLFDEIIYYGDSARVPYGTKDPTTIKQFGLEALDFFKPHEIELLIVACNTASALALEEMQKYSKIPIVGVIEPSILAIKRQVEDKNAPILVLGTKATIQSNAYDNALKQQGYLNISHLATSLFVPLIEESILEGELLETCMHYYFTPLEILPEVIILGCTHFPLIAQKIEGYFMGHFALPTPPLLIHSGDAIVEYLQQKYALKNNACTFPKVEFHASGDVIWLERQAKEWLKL
# T2: H. pylori MurC (Helicobacter pylori, UniProt Q9ZLL2)
# T2 sequence (Q9ZLL2 1-449): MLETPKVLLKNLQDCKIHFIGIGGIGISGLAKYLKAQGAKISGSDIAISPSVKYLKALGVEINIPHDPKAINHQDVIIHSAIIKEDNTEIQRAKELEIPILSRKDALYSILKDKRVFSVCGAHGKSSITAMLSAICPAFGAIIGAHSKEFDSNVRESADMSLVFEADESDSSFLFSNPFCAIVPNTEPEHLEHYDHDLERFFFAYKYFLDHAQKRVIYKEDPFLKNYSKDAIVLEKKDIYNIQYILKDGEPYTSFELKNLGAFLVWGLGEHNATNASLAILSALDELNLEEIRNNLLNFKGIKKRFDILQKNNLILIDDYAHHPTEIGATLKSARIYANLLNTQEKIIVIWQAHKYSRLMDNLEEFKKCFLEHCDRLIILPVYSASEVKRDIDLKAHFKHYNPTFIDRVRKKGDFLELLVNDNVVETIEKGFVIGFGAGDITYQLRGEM
# Assays:
# [1] = target: H. pylori Asd (Helicobacter pylori, UniProt Q9ZK28); test: Asd assay, reverse reaction, NADPH formation
# Procedure: The enzymatic activity of purified His-tagged H. pylori Asd (SEQ ID NO: 6545) was characterized by assaying the reverse reaction of phosphorylation of L-aspartate-β-semialdehyde (ASA) to L-p-aspartyl phosphate, with concomitant reduction of NADP^+ to NADPH. The formation of NADPH was detected by its absorbance, 340 nm, or by its fluorescence, excitation =340 nm, emission 455 nm.
# ASA in 4 N HCl was prepared daily for use in Asd assays by partial neutralization with addition of 1.0 equivalent of […], with a resulting pH=1-2. The amount of ASA was determined enzymatically by complete reaction in the presence of excess NADP^+and phosphate. […] Assays were performed in the following buffer: 200 mM HEPES, 0.3 mM NADP^+, 30 mM NaH2PO4, 1.0 mM DTT, pH 7.5 or pH 8.0. ASA was used in the assay at concentrations of 5-165 μM by diluting the partially-neutralized ASA stock into the assay 10-200 fold, leading to a decrease in pH of 0.1 units or less. Reaction was initiated with the addition of enzyme to a final concentration of 3.5-70 nM.
# [2] = target: T1, H. pylori glutamate racemase (murI gene product); test: Glutamate racemase activity, conversion of D-glutamate to L-glutamate (two enzyme and single enzyme coupled assays); type: biochemical; conditions: purified recombinant enzyme
# Procedure: The activity of glutamate racemase, interconversion of the enantiomers of glutamic acid, was measured using D-glutamic acid as substrate. The method of Gallo and Knowles (Gallo, K. A. and Knowles, J. R., 1993, Biochmistry 32, 3981-3990) that was used to measure the glutamate racemase activity of Lactobacillus fermenti was adapted for the measurement of glutamate racemase activity of the H. pylori murI gene product isolated as a recombinant protein from E. coli. […] Initial rates were determined by following the increase in absorbance at 500 nm in a reaction volume of 200 μl containing 50 mM Tris-HCl, pH 7.8, 4% v/v glycerol, 10 mM NAD, 2 mM INT, 60 Units/ml L-glutamate dehydrogenase, 5 Units/ml diaphorase, and varying concentrations of either substrate (from 0.063 mM to 250 mM D-glutamic acid) or purified enzyme (from 1 μg to 50 μg). After a preincubation of all reagents except either the substrate (D-glutamic acid) or the enzyme (murI gene product) for a period of 5 minutes, reactions were initiated by adding the missing ingredient (i.e., the enzyme or the subtrate, as required), and the increase in optical density at 500 nm was measured in a Microplate Spectophotometer System (Molecular Devices, Spectra MAX 250). Measurements were followed for 20 minutes, and initial velocities were derived by calculating the maximum slope for the absorbance increases. […]
# [3] = target: T2, H. pylori MurC; test: MurC continuous assay, ADP formation coupled to pyruvate kinase/lactate dehydrogenase; type: biochemical; conditions: 500 μM UDP-N-acetylmuramate, 1 mM L-alanine, 1 mM ATP, 0.0018 mg/ml MurC, 37° C.
# Procedure: Purified H. pylori MurC was assayed using a continuous assay by coupling ADP formation with NADH oxidation by the pyruvate kinase/lactate dehydrogenase enzyme couple. Assay conditions were as follows: 100 mM Tris·HCl pH 8.0, 2.5 mM 2-mercaptoethanol, 20 mM KCl, 10 mM DTT, 2 mM MgCl2, 10 mM PEP, 0.15 mM NADH, 3.5 units of pyruvate kinase, 5.5 units of lactate dehydrogenase (Sigma), 500 μM UDP-N-acetylmuramate, 1 mM L-alanine, 1 mM ATP and 0.0018 mg/ml MurC at 37° C. […] Previously boiled enzyme could not support ADP formation. Steady state analysis of the dependence of reaction velocity on substrate concentration was done by varying the concentration of a single substrate in concentrations ranging from 0.5 to 5 times Km while holding the other two substrates constant at 5 times Km concentrations.
molecule,measurement,setting,value
"H. pylori Asd: purified His-tagged H. pylori Asd (SEQ ID NO: 6545) (protein, listed as Helicobacter pylori, His tag; misc_feature (B) LOCATION 1...346; hypothetical: YES) MKTYNVAIVGASGAVGQELIKGLENSFFPIKKFVPLASARSAGKKIRAFNKDYEILETTHEVFEKEEIDIAFFSAGGSVSEEFAISASKTALVIDNTSFFRLNKDVPLVVPEINAQEIFNAPLNIIANPNCSTIQMTQILNPLHLHFKIKSVIVSTYQAVSGAGNKGIESLKNELKTALEHLEKDPAIDLNQVLQAGAFAYPIAFNAIAHIDTFKENGYTKEELKMVHETHKIMGVDFPISATCVRVPVLRSHSESLSIAFEKEFDLKEVYEVLKNAPSVVVCDDPSHNLYPTPLKASHTDSVFIGRLRKDLFDKKTLHGFCVADQLRVGAATNALKIALHYIKNA",decrease of kcat relative to the E. coli enzyme,[1],about 5 fold
same,effect of ionic strength on activity,[1]; ionic strength as high as 0.7 M,unaffected
same,kcat,[1]; pH 8.0,5.4 s⁻¹
"H. pylori glutamate racemase: purified recombinant H. pylori glutamate racemase (SEQ ID NO: 7635) (protein, listed as Helicobacter pylori, misc_feature (B) LOCATION 1...255; hypothetical: YES) MKIGVFDSGVGGFSVLKSLLKARLFDEIIYYGDSARVPYGTKDPTTIKQFGLEALDFFKPHEIELLIVACNTASALALEEMQKYSKIPIVGVIEPSILAIKRQVEDKNAPILVLGTKATIQSNAYDNALKQQGYLNISHLATSLFVPLIEESILEGELLETCMHYYFTPLEILPEVIILGCTHFPLIAQKIEGYFMGHFALPTPPLLIHSGDAIVEYLQQKYALKNNACTFPKVEFHASGDVIWLERQAKEWLKL",kcat,[2],0.143 s⁻¹
same,Vmax,[2]; D-glutamate substrate,~300 nmoles/min/mg protein
"H. pylori MurC: His-tagged H. pylori MurC (SEQ ID NO: 7607) purified from E. coli (protein, listed as Helicobacter pylori, His tag; misc_feature (B) LOCATION 1...449; hypothetical: YES) MLETPKVLLKNLQDCKIHFIGIGGIGISGLAKYLKAQGAKISGSDIAISPSVKYLKALGVEINIPHDPKAINHQDVIIHSAIIKEDNTEIQRAKELEIPILSRKDALYSILKDKRVFSVCGAHGKSSITAMLSAICPAFGAIIGAHSKEFDSNVRESADMSLVFEADESDSSFLFSNPFCAIVPNTEPEHLEHYDHDLERFFFAYKYFLDHAQKRVIYKEDPFLKNYSKDAIVLEKKDIYNIQYILKDGEPYTSFELKNLGAFLVWGLGEHNATNASLAILSALDELNLEEIRNNLLNFKGIKKRFDILQKNDLILIDDYAHHPTEIGTTLKSARIYANLLNTQEKIIVIWQAHKYSRLMDNLEEFKKCFLEHCDRLIILPVYSASEVKRDIDLKAHFKHYNPTFIDRVRKKGDFLELLVNDNVVETIEKGFVIGFGAGDITYQLRGEM",specific activity,[3],5900 nmol/min/mg
